By Kd is commonly meant the constant that tells how readily two partners part at equilibrium.

The target in assay [1] is T1, recombinant biotinylated CD38 protein (Homo sapiens (Human), UniProt P28907 43-300, biotinylated (site not stated)).
T1 construct: also called biotinylated CD38 antigen; biotin-labelled recombinant CD38 protein
As to the kind of experiment: BLI (Octet), biotinylated recombinant CD38 on streptavidin sensors, seven nanobody concentrations, 1:1 model. Background: Biolayer interferometry detects binding as a change in optical thickness at a sensor tip.

The target of assay [2] is T2, human CD38 receptor expressed on RPMI-8226 multiple myeloma cells and other CD38+ cell lines (human, UniProt P28907 1-300).
T2 construct: Endogenous CD38 on human cell lines; also called cyclic ADP-Ribose Hydrolase 1; ADPRC1
Put plainly: saturation binding of radiolabelled nanobody on CD38+ RPMI-8226 cells, 1 hour at 4 C.

B1: anti-CD38 nanobody 2F8 (Nb2F8) with C-terminal hexahistidine tag (VHH)
VHH: QVQLVESGGGSVQAGGSLRLSCAASGYTDSDYIMAWFRQAPGKEREVVATIYIGGTYIHYADSVKGRFTISRDNAENTVYLQMNNLKPEDTAMYYCAATKWRPFISTRAAEYNYWGQGTLVTVSS
notes: also called sdAb 2F8
Regarding B1, the Kd in assay [1] was 0.7 nM.

B2: 111In-DTPA-Nb2F8 (untagged Nb2F8 conjugated to CHX-A''-DTPA and labelled with Indium-111) (VHH)
VHH: QVQLVESGGGSVQAGGSLRLSCAASGYTDSDYIMAWFRQAPGKEREVVATIYIGGTYIHYADSVKGRFTISRDNAENTVYLQMNNLKPEDTAMYYCAATKWRPFISTRAAEYNYWGQGTLVTVSS
modifications: CHX-A''-DTPA conjugated to the free epsilon-amino groups of lysines; chelated Indium-111
notes: also called m In-DTPA-Nb2F8; ul In-DTPA-Nb2F8
In turn, B2 yielded a Kd in assay [2] of 16.7 nM.

The values above are taken from patent WO2021229104A1 (dated 2021).
